Experiments:
[1] = test system: adipose tissue A-SAA production; experiment: Adipose organ culture: direct effect on adipose A-SAA production in vitro; settings: rosiglitazone 1 μM; dexamethasone 25 nM and insulin 7 nM; about 48 hours, SAA production between 24 to 48 hours; n=3
[2] = test system: Primary human coronary vascular endothelial cells (HCVECs); experiment: Cytokine release from SAA-treated human coronary vascular endothelial cells (Luminex / ELISA); format: cell-based
Experimental: (§1) Cell Culture Conditions. Primary human coronary artery endothelial cells (HCAECs) were purchased from Cambrex (Walkersville, Md.) and grown in endothelial cell basal medium-2 (EBM-2) supplemented with EGM-2 BulletKit. Experiments were conducted between the third to fifth passages. RAW264 cells (ATCC, Manassas, Va.) were grown in RPMI medium 1640 supplemented with about 10% fetal bovine serum. These cells were seeded on 6-well tissue culture plates at about 75% confluence and grown to about 90-95% confluence. The growth medium was replaced with supplement-free media (EBM-2 basal medium for HCAECs and RPMI1640 for RAW264). About one hour after the medium change, the cells were treated with recombinant human SAA (Peprotech, Rocky Hill, N.J.). The endotoxin level for this commercial preparation is advertised as less than about 0.1 ng/μg protein. The conditioned medium was collected about 8 hours after the SAA treatment by centrifugation at about 2,000×g for about 5 minutes and frozen until use for cytokine analysis.
(§2) Cytokine analysis. […] The intra- and inter-assay CV is about 5% and about 8% respectively. […] All samples were assayed in duplicate.

[3] = test system: mouse monocyte cell line RAW264; experiment: Cytokine release from SAA-treated RAW264 monocytes (Luminex); format: cell-based; settings: RAW264 cells
Experimental: as §1, §2

[4] = SAA 0.47 or 2.3 μg/ml, about 8 hours, serum-free medium, dose-dependent

CN(CCOc1ccc(CC2SC(=O)NC2=O)cc1)c1ccccn1 (centres unmarked) [rosiglitazone]
reduction of insulin/dexamethasone stimulation of A-SAA secretion in the media [1]: about 70%

lipopolysaccharide [LPS, reference compound]
cytokine secretion (endotoxin contamination control) ([2]; LPS 1 ng/ml): did not stimulate cytokine secretion | cytokine secretion (endotoxin contamination control) ([3]; LPS 1 ng/ml): did not stimulate cytokine secretion

B1: A-SAA: recombinant human SAA (Peprotech); acute-phase serum amyloid A used to treat cells (protein, UniProt P0DJI8 19-122, looked up)
Serum amyloid A-1 protein: RSFFSFLGEAFDGARDMWRAYSDMREANYIGSDKYFHARGNYDAAKRGPGGAWAAEVITDARENIQRFFGHGAEDSLADQAANEWGRSGKDPNHFRPAGLPEKY
release of IL-6 [2, 4]: dramatically stimulated | release of IL-8 [2, 4]: dramatically stimulated | release of MCP-1 [2, 4]: dramatically stimulated | release of plasminogen activator inhibitor-1 (PAI-1) [2, 4]: dramatically stimulated | release of IL-6 [3, 4]: dramatically stimulated | release of IL-8 [3, 4]: dramatically stimulated | release of RANTE [3, 4]: dramatically stimulated | release of TNFα [3, 4]: dramatically stimulated

Source: US20090280108A1, “SERUM AMYLOID A PROTEIN IN INFLAMMATION AND OBESITY” (priority 2004, published 2009)
